12 molecules from US11965039B2, “Compstatin analogues and their medical uses” (priority 2018, dated 2024) can be followed below.

B1: Compound 7 (peptide)
peptide: Ac-ICIWQKWGEHRCT-NH2
modifications: disulfide 2-12
SMILES: CC[C@H](C)[C@H](NC(C)=O)C(=O)N[C@H]1CSSC[C@@H](C(=O)N[C@H](C(N)=O)[C@@H](C)O)NC(=O)[C@H](CCCNC(=N)N)NC(=O)[C@H](Cc2c[nH]cn2)NC(=O)[C@H](CCC(=O)O)NC(=O)CNC(=O)[C@H](Cc2c[nH]c3ccccc23)NC(=O)[C@H](CCCCN)NC(=O)[C@H](CCC(N)=O)NC(=O)[C@H](Cc2c[nH]c3ccccc23)NC(=O)[C@H]([C@@H](C)CC)NC1=O
B2: Compound 110 (peptide)
peptide: Ac-EGSAYCI[Trp(1-Me)]QDWGEHRC[Sar]EGKK([γGlu-Gly-γGlu-C18 diacid])-NH2
modifications: disulfide 6-16
SMILES: CC[C@H](C)[C@@H]1NC(=O)[C@@H](NC(=O)[C@H](Cc2ccc(O)cc2)NC(=O)[C@H](C)NC(=O)[C@H](CO)NC(=O)CNC(=O)[C@H](CCC(=O)O)NC(C)=O)CSSC[C@@H](C(=O)N(C)CC(=O)N[C@@H](CCC(=O)O)C(=O)NCC(=O)N[C@@H](CCCCN)C(=O)N[C@@H](CCCCNC(=O)CC[C@H](NC(=O)CNC(=O)CC[C@H](NC(=O)CCCCCCCCCCCCCCCCC(=O)O)C(=O)O)C(=O)O)C(N)=O)NC(=O)[C@H](CCCNC(=N)N)NC(=O)[C@H](Cc2c[nH]cn2)NC(=O)[C@H](CCC(=O)O)NC(=O)CNC(=O)[C@H](Cc2c[nH]c3ccccc23)NC(=O)[C@H](CC(=O)O)NC(=O)[C@H](CCC(N)=O)NC(=O)[C@H](Cc2cn(C)c3ccccc23)NC1=O
B3: Compound 109 (peptide)
peptide: Ac-EGSAYCI[Trp(1-Me)]QDWGEHRC[Sar]EGEK([γGlu-Gly-γGlu-C18 diacid])-NH2
modifications: disulfide 6-16
SMILES: CC[C@H](C)[C@@H]1NC(=O)[C@@H](NC(=O)[C@H](Cc2ccc(O)cc2)NC(=O)[C@H](C)NC(=O)[C@H](CO)NC(=O)CNC(=O)[C@H](CCC(=O)O)NC(C)=O)CSSC[C@@H](C(=O)N(C)CC(=O)N[C@@H](CCC(=O)O)C(=O)NCC(=O)N[C@@H](CCC(=O)O)C(=O)N[C@@H](CCCCNC(=O)CC[C@H](NC(=O)CNC(=O)CC[C@H](NC(=O)CCCCCCCCCCCCCCCCC(=O)O)C(=O)O)C(=O)O)C(N)=O)NC(=O)[C@H](CCCNC(=N)N)NC(=O)[C@H](Cc2c[nH]cn2)NC(=O)[C@H](CCC(=O)O)NC(=O)CNC(=O)[C@H](Cc2c[nH]c3ccccc23)NC(=O)[C@H](CC(=O)O)NC(=O)[C@H](CCC(N)=O)NC(=O)[C@H](Cc2cn(C)c3ccccc23)NC1=O
B4: Compound 112 (peptide)
peptide: Ac-SEYCI[Trp(1-Me)]QDWGEHRC[Sar]EGAK([γGlu-Gly-γGlu-C18 diacid])-NH2
modifications: disulfide 4-14
SMILES: CC[C@H](C)[C@@H]1NC(=O)[C@@H](NC(=O)[C@H](Cc2ccc(O)cc2)NC(=O)[C@H](CCC(=O)O)NC(=O)[C@H](CO)NC(C)=O)CSSC[C@@H](C(=O)N(C)CC(=O)N[C@@H](CCC(=O)O)C(=O)NCC(=O)N[C@@H](C)C(=O)N[C@@H](CCCCNC(=O)CC[C@H](NC(=O)CNC(=O)CC[C@H](NC(=O)CCCCCCCCCCCCCCCCC(=O)O)C(=O)O)C(=O)O)C(N)=O)NC(=O)[C@H](CCCNC(=N)N)NC(=O)[C@H](Cc2c[nH]cn2)NC(=O)[C@H](CCC(=O)O)NC(=O)CNC(=O)[C@H](Cc2c[nH]c3ccccc23)NC(=O)[C@H](CC(=O)O)NC(=O)[C@H](CCC(N)=O)NC(=O)[C@H](Cc2cn(C)c3ccccc23)NC1=O
B5: Compound 115 (peptide)
peptide: Ac-SEYCI[Trp(1-Me)]QDWGEHRC[Sar]EGKK([γGlu-Gly-γGlu-C18 diacid])-NH2
modifications: disulfide 4-14
SMILES: CC[C@H](C)[C@@H]1NC(=O)[C@@H](NC(=O)[C@H](Cc2ccc(O)cc2)NC(=O)[C@H](CCC(=O)O)NC(=O)[C@H](CO)NC(C)=O)CSSC[C@@H](C(=O)N(C)CC(=O)N[C@@H](CCC(=O)O)C(=O)NCC(=O)N[C@@H](CCCCN)C(=O)N[C@@H](CCCCNC(=O)CC[C@H](NC(=O)CNC(=O)CC[C@H](NC(=O)CCCCCCCCCCCCCCCCC(=O)O)C(=O)O)C(=O)O)C(N)=O)NC(=O)[C@H](CCCNC(=N)N)NC(=O)[C@H](Cc2c[nH]cn2)NC(=O)[C@H](CCC(=O)O)NC(=O)CNC(=O)[C@H](Cc2c[nH]c3ccccc23)NC(=O)[C@H](CC(=O)O)NC(=O)[C@H](CCC(N)=O)NC(=O)[C@H](Cc2cn(C)c3ccccc23)NC1=O
B6: Compound 108 (peptide)
peptide: {C18 diacid}-EGSEYCI[Trp(1-Me)]QDWGEHRC[Sar]E-NH2
modifications: disulfide 6-16
SMILES: CC[C@H](C)[C@@H]1NC(=O)[C@@H](NC(=O)[C@H](Cc2ccc(O)cc2)NC(=O)[C@H](CCC(=O)O)NC(=O)[C@H](CO)NC(=O)CNC(=O)[C@H](CCC(=O)O)NC(=O)CCCCCCCCCCCCCCCCC(=O)O)CSSC[C@@H](C(=O)N(C)CC(=O)N[C@@H](CCC(=O)O)C(N)=O)NC(=O)[C@H](CCCNC(=N)N)NC(=O)[C@H](Cc2c[nH]cn2)NC(=O)[C@H](CCC(=O)O)NC(=O)CNC(=O)[C@H](Cc2c[nH]c3ccccc23)NC(=O)[C@H](CC(=O)O)NC(=O)[C@H](CCC(N)=O)NC(=O)[C@H](Cc2cn(C)c3ccccc23)NC1=O
B7: Compound 129 (peptide)
peptide: Ac-SEFCI[Trp(1-Me)]QDWGEHRC[Sar]EGEGGGK([γGlu-Gly-γGlu-C18 diacid])-NH2
modifications: disulfide 4-14
SMILES: CC[C@H](C)[C@@H]1NC(=O)[C@@H](NC(=O)[C@H](Cc2ccccc2)NC(=O)[C@H](CCC(=O)O)NC(=O)[C@H](CO)NC(C)=O)CSSC[C@@H](C(=O)N(C)CC(=O)N[C@@H](CCC(=O)O)C(=O)NCC(=O)N[C@@H](CCC(=O)O)C(=O)NCC(=O)NCC(=O)NCC(=O)N[C@@H](CCCCNC(=O)CC[C@H](NC(=O)CNC(=O)CC[C@H](NC(=O)CCCCCCCCCCCCCCCCC(=O)O)C(=O)O)C(=O)O)C(N)=O)NC(=O)[C@H](CCCNC(=N)N)NC(=O)[C@H](Cc2c[nH]cn2)NC(=O)[C@H](CCC(=O)O)NC(=O)CNC(=O)[C@H](Cc2c[nH]c3ccccc23)NC(=O)[C@H](CC(=O)O)NC(=O)[C@H](CCC(N)=O)NC(=O)[C@H](Cc2cn(C)c3ccccc23)NC1=O
B8: Compound 114 (peptide)
peptide: Ac-SEYCI[Trp(1-Me)]QDWGEHRC[Sar]EGEK([γGlu-Gly-γGlu-C18 diacid])-NH2
modifications: disulfide 4-14
SMILES: CC[C@H](C)[C@@H]1NC(=O)[C@@H](NC(=O)[C@H](Cc2ccc(O)cc2)NC(=O)[C@H](CCC(=O)O)NC(=O)[C@H](CO)NC(C)=O)CSSC[C@@H](C(=O)N(C)CC(=O)N[C@@H](CCC(=O)O)C(=O)NCC(=O)N[C@@H](CCC(=O)O)C(=O)N[C@@H](CCCCNC(=O)CC[C@H](NC(=O)CNC(=O)CC[C@H](NC(=O)CCCCCCCCCCCCCCCCC(=O)O)C(=O)O)C(=O)O)C(N)=O)NC(=O)[C@H](CCCNC(=N)N)NC(=O)[C@H](Cc2c[nH]cn2)NC(=O)[C@H](CCC(=O)O)NC(=O)CNC(=O)[C@H](Cc2c[nH]c3ccccc23)NC(=O)[C@H](CC(=O)O)NC(=O)[C@H](CCC(N)=O)NC(=O)[C@H](Cc2cn(C)c3ccccc23)NC1=O
B9: Compound 5 (peptide)
peptide: Ac-ICIWQDWGKHRCT-NH2
modifications: disulfide 2-12
SMILES: CC[C@H](C)[C@H](NC(C)=O)C(=O)N[C@H]1CSSC[C@@H](C(=O)N[C@H](C(N)=O)[C@@H](C)O)NC(=O)[C@H](CCCNC(=N)N)NC(=O)[C@H](Cc2c[nH]cn2)NC(=O)[C@H](CCCCN)NC(=O)CNC(=O)[C@H](Cc2c[nH]c3ccccc23)NC(=O)[C@H](CC(=O)O)NC(=O)[C@H](CCC(N)=O)NC(=O)[C@H](Cc2c[nH]c3ccccc23)NC(=O)[C@H]([C@@H](C)CC)NC1=O
B10: Compound 113 (peptide)
peptide: Ac-ASGEYCI[Trp(1-Me)]QDWGEHRC[Sar]EGEK([γGlu-Gly-γGlu-C18 diacid])-NH2
modifications: disulfide 6-16
SMILES: CC[C@H](C)[C@@H]1NC(=O)[C@@H](NC(=O)[C@H](Cc2ccc(O)cc2)NC(=O)[C@H](CCC(=O)O)NC(=O)CNC(=O)[C@H](CO)NC(=O)[C@H](C)NC(C)=O)CSSC[C@@H](C(=O)N(C)CC(=O)N[C@@H](CCC(=O)O)C(=O)NCC(=O)N[C@@H](CCC(=O)O)C(=O)N[C@@H](CCCCNC(=O)CC[C@H](NC(=O)CNC(=O)CC[C@H](NC(=O)CCCCCCCCCCCCCCCCC(=O)O)C(=O)O)C(=O)O)C(N)=O)NC(=O)[C@H](CCCNC(=N)N)NC(=O)[C@H](Cc2c[nH]cn2)NC(=O)[C@H](CCC(=O)O)NC(=O)CNC(=O)[C@H](Cc2c[nH]c3ccccc23)NC(=O)[C@H](CC(=O)O)NC(=O)[C@H](CCC(N)=O)NC(=O)[C@H](Cc2cn(C)c3ccccc23)NC1=O

Starred links: 1 amine or outer side, 2 acyl side, 3 side chain; linkers in the order of their positions; H or OH if unused. Positions of bridges follow the written chain, without caps; N, C: chain ends. Non-standard residues stand in square brackets, D forms with d. Groups on a side chain read outwards from the residue. *: point of attachment. Trp(1-Me) = Cn1cc(C[C@H](N)C(=O)O)c2ccccc21; C18 diacid = O=C(O)CCCCCCCCCCCCCCCCC(=O)*; γGlu = O=C(O)[C@H](CCC(=O)[*:2])N[*:1]; Sar = CNCC(=O)O

The target in this assay is Human C3 (Complement tech cat #A113c) (human, UniProt P01024 23-1663). Briefly: cell-based or functional assay.
Human C3 (Complement tech cat #A113c), sequence (P01024 23-1663 limits assumed): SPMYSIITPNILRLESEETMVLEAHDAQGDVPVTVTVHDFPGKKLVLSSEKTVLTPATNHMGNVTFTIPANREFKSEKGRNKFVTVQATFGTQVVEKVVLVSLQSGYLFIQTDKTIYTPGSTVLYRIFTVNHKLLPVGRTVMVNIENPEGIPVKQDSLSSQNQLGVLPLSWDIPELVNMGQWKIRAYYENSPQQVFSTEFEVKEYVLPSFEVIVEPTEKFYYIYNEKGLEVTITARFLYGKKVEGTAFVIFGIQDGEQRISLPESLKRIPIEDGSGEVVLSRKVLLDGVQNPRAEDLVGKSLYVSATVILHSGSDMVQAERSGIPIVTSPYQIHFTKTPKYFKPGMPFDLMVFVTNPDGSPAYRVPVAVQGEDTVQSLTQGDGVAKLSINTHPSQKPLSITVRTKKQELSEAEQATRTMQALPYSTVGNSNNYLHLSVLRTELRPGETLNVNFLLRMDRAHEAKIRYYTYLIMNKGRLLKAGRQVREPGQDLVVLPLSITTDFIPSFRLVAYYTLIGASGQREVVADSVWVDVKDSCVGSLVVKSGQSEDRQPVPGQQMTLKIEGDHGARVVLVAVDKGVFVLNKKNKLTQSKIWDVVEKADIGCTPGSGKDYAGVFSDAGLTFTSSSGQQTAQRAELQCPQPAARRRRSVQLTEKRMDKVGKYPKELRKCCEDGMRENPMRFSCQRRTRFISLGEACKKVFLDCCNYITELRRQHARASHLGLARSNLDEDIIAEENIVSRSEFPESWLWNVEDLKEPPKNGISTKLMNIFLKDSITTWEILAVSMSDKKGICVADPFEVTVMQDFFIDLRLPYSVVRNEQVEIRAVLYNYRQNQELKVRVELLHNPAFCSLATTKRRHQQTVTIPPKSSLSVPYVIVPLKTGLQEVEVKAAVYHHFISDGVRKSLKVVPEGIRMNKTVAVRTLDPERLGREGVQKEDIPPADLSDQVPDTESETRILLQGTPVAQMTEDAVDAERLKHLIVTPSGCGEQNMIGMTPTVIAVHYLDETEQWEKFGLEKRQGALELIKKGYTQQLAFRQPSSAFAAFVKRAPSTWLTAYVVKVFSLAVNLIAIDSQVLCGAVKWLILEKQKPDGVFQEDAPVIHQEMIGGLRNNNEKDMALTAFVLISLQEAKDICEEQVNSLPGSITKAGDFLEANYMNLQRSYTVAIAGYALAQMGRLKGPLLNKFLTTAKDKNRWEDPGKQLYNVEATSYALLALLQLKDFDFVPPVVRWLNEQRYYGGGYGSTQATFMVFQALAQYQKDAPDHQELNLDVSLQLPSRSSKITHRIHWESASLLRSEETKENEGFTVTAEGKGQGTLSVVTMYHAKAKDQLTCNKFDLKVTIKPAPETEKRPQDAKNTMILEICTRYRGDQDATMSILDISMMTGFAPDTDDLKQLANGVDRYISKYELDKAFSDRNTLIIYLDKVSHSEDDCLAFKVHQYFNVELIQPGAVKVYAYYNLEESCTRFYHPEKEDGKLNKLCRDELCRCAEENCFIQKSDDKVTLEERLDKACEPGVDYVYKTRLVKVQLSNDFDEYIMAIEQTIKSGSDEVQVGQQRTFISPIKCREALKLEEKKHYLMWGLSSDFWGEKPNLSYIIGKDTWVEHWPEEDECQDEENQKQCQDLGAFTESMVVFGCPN
In the case of B1, the “inhibition of hemolysis IC50” value was less than 1000 nM.

B2: the “inhibition of hemolysis IC50” value was less than 250 nM.

For B3, the “inhibition of hemolysis IC50” value is less than 250 nM.

Regarding B4, the “inhibition of hemolysis IC50” value was less than 500 nM.

With B5, the “inhibition of hemolysis IC50” value is less than 250 nM.

Take B6: the “inhibition of hemolysis IC50” value is less than 500 nM.

Ac-SAYCI[Trp(1-Me)]QDWGEHRC[Sar]EK([γGlu-Gly-Lys-γGlu-C18 diacid])-NH2 (disulfide 4-14) [Compound 105]: the “inhibition of hemolysis IC50” value was less than 100 nM.

In the case of Ac-SEYCI[Trp(1-Me)]QDWGEHRC[Sar]EGEK([γGlu-Lys-γGlu-C18 diacid])-NH2 (disulfide 4-14) [Compound 116], the “inhibition of hemolysis IC50” value was less than 500 nM.

Consider B7, for which the “inhibition of hemolysis IC50” value is less than 100 nM.

With B8, the “inhibition of hemolysis IC50” value is less than 500 nM.

For the molecule B9, the “inhibition of hemolysis IC50” value is less than 250 nM.

As for B10, the “inhibition of hemolysis IC50” value is less than 500 nM.
